Laboratory results from PMC6853952, “MUC4-ErbB2 Oncogenic Complex: Binding studies using Microscale Thermophoresis” (Scientific Reports, 2019).

B1: eGFP-MUC4_(EGF3+1+2) (truncated mutant encompassing only the EGF domains of MUC4) (domain or fragment, human, UniProt Q99102 5118-5360, looked up)
chain: QNQSCPVNYCYNQGHCYISQTLGCQPMCTCPPAFTDSRCFLAGNNFSPTVNLELPLRVIQLLLSEEENASMAEVNASVAYRLGTLDMRAFLRNSQVERIDSAAPASGSPIQHWMVISEFQYRPRGPVIDFLNNQLLAAVVEAFLYHVPRRSEEPRNDVVFQPISGEDVRDVTALNVSTLKAYFRCDGYKGYDLVYSPQSGFTCVSPCSRGYCDHGGQCQHLPSGPRCSCVSFSIYTAWGEHCE
notes: MUC4, UniProt Q99102; said to hold the three EGF-like domains EGF3, EGF1 and EGF2 with what lies between; source: CHO-K1, transfected (peGFP-C1), selected, in cell lysate, used without further purification

What was measured:
[1] = molecular target: eGFP-MUC4β fusion protein (transmembrane β subunit of MUC4) (human) (UniProt Q99102); assay: MST; normal model, optimised conditions: MPer lysate with the eGFP fusion kept constant around 33 nM, Fc protein titrated 1:1 in PBS with 0.05% P20 from 1 µM to 0.05 nM; 80% MST power, MST-on 30 s; blue LED
[2] = molecular target: eGFP-MUC4β fusion protein (transmembrane β subunit of MUC4) (human) (UniProt Q99102); assay: MST; normal model: eGFP fusion in CHO-K1 lysate kept constant, ErbB2-Fc titrated, label-free; lysis buffer RIPA, dilution in PBS; 23 °C
[3] = molecular target: eGFP-MUC4β fusion protein (transmembrane β subunit of MUC4) (human) (UniProt Q99102); assay: MST; normal model: eGFP fusion in CHO-K1 lysate kept constant, ErbB2-Fc titrated, label-free; lysis buffer MPer, dilution in MST buffer; 23 °C
[4] = molecular target: eGFP-MUC4β fusion protein (transmembrane β subunit of MUC4) (human) (UniProt Q99102); assay: MST; normal model: eGFP fusion in CHO-K1 lysate kept constant, ErbB2-Fc titrated, label-free; lysis buffer RIPA, dilution in Tris-based MST buffer; 23 °C
[5] = molecular target: T1, recombinant human ErbB2-Fc chimera (human, UniProt P04626 23-652); assay: MST; normal model, optimised conditions: MPer lysate with the eGFP fusion kept constant around 33 nM, Fc protein titrated 1:1 in PBS with 0.05% P20 from 1 µM to 0.05 nM; 80% MST power, MST-on 30 s; blue LED; settings: one partner purified
T1 construct: ErbB2 receptor tyrosine kinase, human; extracellular domains, lacks the TM and CT part; Described as a disulfide-linked homodimeric protein; In the reverse model it was labelled on its 6His-tag with RED-tris-NTA dye (not covalent); also called recombinant ErbB2

[6] = molecular target: T1, recombinant human ErbB2-Fc chimera; assay: MST; reverse model: ErbB2-Fc labelled on its 6His-tag with RED-tris-NTA dye kept constant, MPer lysate containing the eGFP fusion titrated 3:1 in PBS with 0.05% P20 (up to about 400 nM); red LED, 80% MST power; settings: one partner purified

Row | Kd [1] | Kd [2] | Kd [3] | Kd [4] | Kd [5] | Kd [6] | Molecule
1 | > 20 µM | – | – | – | – | – | PD-1-Fc (non-relevant protein containing the same Fc as recombinant ErbB2) (from UniProt Q15116 25-170) (Fc fusion)
2 | 0.131 µM | > 20 µM | > 20 µM | > 20 µM | – | – | recombinant human ErbB2-Fc chimera (from UniProt P04626 23-652) (Fc fusion)
3 | – | – | – | – | 0.079 ± 0.018 µM | 0.065 ± 0.014 µM | B1
